Experimental data from patent US10704056B2, “Constitutively active ABA receptor mutants” (The Regents of the University of California, priority 2011, dated 2020).

Tested on: HAB1
Experiment: In vitro PP2C phosphatase (pNPP) receptor activation assay with HAB1
Type: biochemical, Arabidopsis
Conditions: 600 nM GST-HAB1, 0-4800 nM receptor, no ABA
Protocol: Recombinant receptor proteins were produced as follows: Coding sequences were cloned into pET28 yielding 6×HIS (SEQ ID NO:173) fusions proteins and transformed into E. coli expression strain BL21. […]. Cells were stored at −80° C. before purification. After thawing, cells were sonicated on ice five times for 30 sec with 30 sec resting intervals. A cleared lysate was obtained after centrifugation at 12,000×g for 10 min and applied to 1 ml of Ni-NTA column (Qiagen) and washed with 20 column volumes of Buffer A containing 30 mM imidazole. Bound protein was eluted with 10 ml of Buffer A with 250 mM imidazole. The elutate was dialyzed against TBS. The purified recombinant proteins were then used together with recombinant phosphatases in receptor assays. In these assays, receptor activity is indicated by inhibition of phosphatase activity, as inferred from initial reaction velocities for GST-HAB1 mediated hydrolysis of the synthetic phosphatase substrate pNPP. Reactions contained 600 nM GST-HAB1 and either 0, 600, 1200, 2400 or 4800 nM 6×His-PYR1 or variants in a reaction buffer consisting of 33 mM Tris-OAc, pH 7.9, 66 mM KOAc, 0.1% BSA, 25 mM Mn(OAc)2, 50 mM pNPP. To infer the level of receptor activation with respect to fully activated wild type receptor, control reactions were also conducted using saturating levels of (+)-ABA (10 μM), and 600 nM wild type PYR1 and HAB1. Immediately after mixing proteins and substrates, reactions were monitored for hydrolysis of pNPP at A405 at ˜10 second intervals over 20 minutes using a Wallac plate reader. Reaction progressions were plotted, initial velocities calculated and converted to specific activities using a standard curve for 4-nitrophenol made in the same buffer system volumes/plate reader used for enzymatic reaction measurements. The values shown are expressed as %-control phosphatase activity levels as measured in the absence of receptor protein. The average specific activity level of GST-HAB1 utilized in our experiments was 4000 μmol/min/mg, when assayed on the phosphatase substrate pNPP in the absence of PYR1 or other receptors, as described using the methods above.
Full length ABI1 and ABI2 were cloned into a modified pSUMO vector (LifeSensors Inc, USA) vector yielding 6×His-SUMO fusion proteins; GST-HAB1 was expressed and purified as previously described (Park et al., 2009). Mutant receptors were cloned into pET28 yielding 6×His-fusion proteins. […]. The cultures were pre-incubated 2 hours at 30° C. and, for PP2C expression, media was supplemented with 4 mM MnCl2 one hour after inoculation. After pre-incubation, IPTG was added (1 mM) and cells were induced at 15° C. for 16 hours, after which they were collected by centrifugation, resuspended in 5 ml Buffer A (50 mM NaH2PO4, 300 mM NaCl) +10 mM imidazole, pH 8.0 and stored at −80° C. For purification, cells were thawed, sonicated on ice (60 seconds) and a cleared lysate was then applied a 1 ml-bed volume column of Ni-NTA (Qiagen, USA), washed with 20 column volumes of Buffer A+30 mM imidazole and bound protein eluted with 1 ml of Buffer A+250 mM imidazole. For receptors, the elutate was dialyzed against TBS and for PP2Cs, fusion proteins were desalted by passage over a Sephadex G50 column.
The purified receptors and phosphatases were then used in receptor assays where receptor activation is indicated by inhibition of phosphatase activity, as inferred from initial reaction velocities for PP2C-mediated hydrolysis of the synthetic phosphatase substrate pNPP in reactions containing 600 nM PP2C and either 0, 600, 1200, 2400 or 4800 nM receptor. The receptor assay buffer consisted of 33 mM Tris-OAc, pH 7.9, 66 mM KOAc, 0.1% BSA, 25 mM Mn(OAc)2, 0.1%13-ME and 50 mM pNPP. Immediately after mixing proteins and substrates, reactions were monitored for hydrolysis of pNPP at A405 at ˜2 minutes intervals using a Wallac plate reader. […]

Row | basal receptor activity (inhibition of HAB1 phosphatase activity in the absence of ABA) | Molecule
1 | are not full CA receptors | PYL10: wild-type ABA receptor PYL10 (SEQ ID NO:11) (protein, listed as Arabidopsis thaliana, thale cress PYR/PYL receptor, abscisic acid receptor PYL10, PYR1-like protein 10 (PYL10), ABI1-binding protein 8 (ABIP8), regulatory components of ABA receptor 4 (RCAR4), At4g27920, T13J8.30) MNGDETKKVESEYIKKHHRHELVESQCSSTLVKHIKAPLHLVWSIVRRFDEPQKYKPFISRCVVQGKKLEVGSVREVDLKSGLPATKSTEVLEILDDNEHILGIRIVGGDHRLKNYSSTISLHSETIDGKTGTLAIESFVVDVPEGNTKEETCFFVEALIQCNLNSLADVTERLQAESMEKKI
2 | are not full CA receptors | PYL6: wild-type ABA receptor PYL6 (SEQ ID NO:7) (protein, listed as Arabidopsis thaliana, thale cress PYR/PYL receptor, abscisic acid receptor PYL6, PYR1-like protein 6 (PYL6), ABI1-binding protein 5 (ABIP5), regulatory components of ABA receptor 9 (RCAR9), Bet v I allergen family protein, At2g40330, T7M7.15) MPTSIQFQRSSTAAEAANATVRNYPHHHQKQVQKVSLTRGMADVPEHVELSHTHVVGPSQCFSVVVQDVEAPVSTVWSILSRFEHPQAYKHFVKSCHVVIGDGREVGSVREVRVVSGLPAAFSLERLEIMDDDRHVISFSVVGGDHRLMNYKSVTTVHESEEDSDGKKRTRVVESYVVDVPAGNDKEETCSFADTIVRCNLQSLAKLAENTSKFS
3 | highly activated in the absence of ABA | PYL9^CA4C: PYL9 mutant (A91W, Y160I, F161V) (protein) HHHHHHMMDGVEGGTAMYGGLETVQYVRTHHQHLCRENQCTSALVKHIKAPLHLVWSLVRRFDQPQKYKPFVSRCTVIGDPEIGSLREVNVKSGLPWTTSTERLELLDDEEHILGIKIIGGDHRLKNYSSILTVHPEIIEGRAGTMVIESFVVDVPQGNTKDETCIVVEALIRCNLKSLADVSERLASQDITQ
4 | highly activated in the absence of ABA | PYL2^CA4C: PYL2 mutant (H65P, A93W, M1641, F165V) (protein) HHHHHHMSSSPAVKGLTDEEQKTLEPVIKTYHQFEPDPTTCTSLITQRIHAPASVVWPLIRRFDNPERYKPFVKRCRLISGDGDVGSVREVTVISGLPWSTSTERLEFVDDDHRVLSFRVVGGEHRLKNYKSVTSVNEFLNQDSGKVYTVVLESYTVDIPEGNTEEDTKIVVDTVVKLNLQKLGVAATSAPMHDDE

Row | Molecule | basal receptor activity (inhibition of HAB1 phosphatase activity in the absence of ABA)
5 | PYR1^CA4B: PYR1 quadruple mutant (V83F, M158I, F159V, K170W) (protein) HHHHHHMPSELTPEERSELKNSIAEFHTYQLDPGSCSSLHAQRIHAPPELVWSIVRRFDKPQTYKHFIKSCSVEQNFEMRVGCTRDVIFISGLPANTSTERLDILDDERRVTGFSIIGGEHRLTNYKSVTTVHRFEKENRIWTVVLESYVVDMPEGNSEDDTRIVADTVVKLNLQWLATVAEAMARNSGDGSGSQVT | dramatically increased basal PYR1 activity
6 | PYR1^CAc: PYR1 quadruple mutant (H60P, A89W, M158I, F159V) (protein) HHHHHHMPSELTPEERSELKNSIAEFHTYQLDPGSCSSLHAQRIHAPPELVWSIVRRFDKPQTYKPFIKSCSVEQNFEMRVGCTRDVIVISGLPWNTSTERLDILDDERRVTGFSIIGGEHRLTNYKSVTTVHRFEKENRIWTVVLESYVVDMPEGNSEDDTRIVADTVVKLNLQKLATVAEAMARNSGDGSGSQVT | dramatically increased basal PYR1 activity
